The source of these data is US20180036395A1, “DOSAGE AND ADMINISTRATION OF MONOSPECIFIC AND BISPECIFIC ANTI-IGR-1R AND ANTI-ERBB3 ANTIBODIES” (Merrimack Pharmaceuticals, Inc., priority 2012, published 2018).

Type in all cases: in vivo, human
Assay [1] concerns gastrointestinal neuroendocrine tumors. Put plainly: Treatment of patients with gastrointestinal neuroendocrine tumors. The procedure: (§1) P4-G1-M1.3 is formulated in 20 mM histidine, 100 mM arginine-HCl, 3% sucrose, at pH 5.5 supplemented with 0.002-0.02% of Tween® 80 at concentration range 5-15 mg/mL. P4-G1-M1.3 is administered to patients at 6 mg/kg, 12 mg/kg, 20 mg/kg, 30 mg/kg, 40 mg/kg, 50 mg/kg or 60 mg/kg q7d, ql4d, q21d, or q28d with a loading dose of 12 mg/kg, 20 mg/kg, 40 mg/kg, 40 mg/kg or 60 mg/kg Everolimus is administered to patients at 2.5 mg, 5 mg, or 10 mg orally once a day or once every other day.
Patients with gastrointestinal neuroendocrine tumors are treated by administration of either monotherapy with an effective amount of everolimus or an effective amount of P4-G1-M1.3, or with combination therapy comprising or consisting of administration of both the effective amount of everolimus and the effective amount of P4-G1-M1.3. P4-G1-M1.3 and everolimus are prepared and dosed as described in Example 1.
Patients with gastrointestinal neuroendocrine tumors are treated by administration of either monotherapy with an effective amount of mTOR inhibitor temsirolimus (Torisel®) or an effective amount of P4-G1-M1.3, or with combination therapy comprising or consisting of administration of both the effective amount of temsirolimus and the effective amount of P4-G1-M1.3. P4-G1-M1.3 is prepared and dosed as described in Example 1. Temsirolimus is dosed at 2.5 mg, 7.5 mg, 15 mg, or 25 mg (25 mg is the manufacturer's recommended dose) infused over a 30-60 minute period once a week.
Patients with gastrointestinal neuroendocrine tumors are treated by administration of either monotherapy with an effective amount of mTOR inhibitor sirolimus (Rapamune®) or an effective amount of P4-G1-M1.3, or with combination therapy comprising or consisting of administration of both the effective amount of sirolimus and the effective amount of P4-G1-M1.3. P4-G1-M1.3 is prepared and dosed as described in Example 1.

Assay [2] relates to Caki-1 renal cell carcinoma cancer cells. Description: Caki-1 renal cell carcinoma xenograft study. The procedure:
The y-axis represents mean tumor volume in mm^3 and the x-axis represents time in days.
For each of the xenograft studies below, cells are resuspended 1:1 with PBS:Growth factor-reduced Matrigel® and injected subcutaneously into Nu/Nu mice. Tumors are allowed to develop for 8 days. Antibodies are injected intraperitoneally every 3 days (q3d) at the indicated doses/mouse. Tumor lengths and widths are measured twice a week manually by caliper, and tumor volume calculated using the following formula: π/6(L×W^2). Each arm of a study contains 10 animals. All studies are carried out using methods approved by an internal IACUC panel. […]

The subject of assay [3] is Ewing's sarcoma or metastatic pancreatic cancer. Description: Treatment of patients with Ewing's sarcoma or metastatic pancreatic cancer. The note with it: irinotecan or nanoliposomal irinotecan + P4-G1-M1.3. The procedure:
as §1
Patients with Ewing's sarcoma or metastatic pancreatic cancer are treated with a combination of an effective amount of irinotecan (Camptosar®) or nanoliposomal irinotecan and an effective amount of P4-G1-M1.3. P4-G1-M1.3 is formulated and administered as described above (e.g., Example 1). Nanoliposomal irinotecan is given i.v. at 80 mg/m^2 or 120 mg/m^2 q3w. Camptosar® is administered per manufacturer's directions.

Assay [4] has as its system locally advanced or metastatic breast cancer. Description: Treatment of patients with locally advanced or metastatic breast cancer. The procedure: as §1
Patients with estrogen receptor positive or progesterone receptor positive or triple negative breast cancers that are locally advanced or metastatic, or with any of the tumor types listed in Examples 5-10, are treated with a combination of an effective amount of i) any of the mTOR inhibitors of the preceding examples (at doses as described therein), or with a pan-mTOR inhibitor (INK128, CC223, OSI207, AZD8055, AZD2014, or Palomid529) and ii) an effective amount of P4-G1-M1.3. Patients are dosed with P4-G1-M1.3 as described in Example 1. The dose of pan-mTOR inhibitor is the dose used in phase I or, preferably phase II or III clinical trials.
Postmenopausal women with estrogen receptor-positive locally advanced or metastatic breast cancer are treated with a combination of an effective amount of PI3K inhibitor (e.g., XL147 or BKM120) and an effective amount of P4-G1-M1.3. Patients are dosed with P4-G1-M1.3 as described in Example 1. XL147 is dosed at 25, 50, 100, or 200 mg orally once a day for 21 consecutive days. Alternately BKM120 is dosed at […] orally once a day for 28 consecutive days.
Women with estrogen or progesterone receptor positive locally advanced or metastatic breast cancer are treated with a combination therapy comprising or consisting of administration of an effective amount of an antihormonal therapy (such as tamoxifen, exemestane, letrozole or fulvestrant) and administration of an effective amount of P4-G1-M1.3. P4-G1-M1.3 is formulated and administered as described above. Antihormonal therapy is administered in accordance with manufacturer's directions.
Women with estrogen or progesterone receptor positive locally advanced or metastatic breast cancer are treated with a combination of an effective amount of PI3K/mTOR dual inhibitor NVP-BEZ235 and an effective amount of P4-G1-M1.3. Patients are dosed with P4-G1-M1.3 as described in Example 1. NVP-BEZ235 is given orally twice daily at doses of 400 mg, 600 mg, or 800 mg.
Women with locally advanced or metastatic breast cancer are treated with a combination of an effective amount of docetaxel (Taxotere®) and an effective amount of P4-G1-M1.3. Patients are dosed with P4-G1-M1.3 as described in Example 1. Patients are dosed with docetaxel at 25, 50, 75 or 100 mg/m^2 i.v. once every 3 weeks or per standard clinical practice.
Patients with metastatic breast cancer are treated with a combination of an effective amount of paclitaxel (Taxol®) or of eribulin and an effective amount of P4-G1-M1.3. Patients are dosed with P4-G1-M1 as described in Example 1. Patients are dosed per standard clinical practice for paclitaxel or eribulin.

B1: P4-G1-M1.3: anti-IGF-1R+anti-ErbB3 polyvalent bispecific antibody, IgG1-(scFv)2 (SEQ ID NO:148 and SEQ ID NO:149) (protein)
chain 1: EVQLLQSGGGLVQPGGSLRLSCAASGFLFSSYPMHWVRQAPGKGLEWVGSISPSGGATPYADSVKGRFTISRDNSKNTLYLQMNSLRPEDTAVYYCAKDFYNILTGNAFDKWGQGTSVTVSSASTGGGGSGGGGSGGGGSGGGGSDIQLTQSPSSLSASLGDRVTITCRASQGISSYLAWYQQKPGKAPKLLIYAGSTPQSGVPSRFSGSGSGTEFTLTISSLQPEDSGTYYCQQYWTWPLTFGGGTKVEIKRT
chain 2: EVQLVESGGGLVQPGRSLRLSCAASGFTFDDYAMHWVRQAPGKGLEWVSGISWNSGSTGYADSVKGRFTISRDNAKNSLYLQMNSLRAEDTALYYCARDLGYNQWLEGFDYWGQGTLVTVSSASTGGGGSGGGGSGGGGSGGGGSSSELTQDPAVSVALGQTVRITCQGDSLRSYYASWYQQKPGQAPVLVIYGKNNRPSGIPDRFSGSSSGNTASLTITGAQAEDEADYYCMSRDHPGNQWVFGGGTKVTVLG
modifications: Synthetic polypeptide:Anti-IGF-1R scFvs M76; Synthetic polypeptide:Anti-ErbB3 scFvs P6L
As for B1, the treatment outcome in assay [1] (everolimus + P4-G1-M1.3) is “combinatorially enhanced outcome”; in assay [1] (sirolimus + P4-G1-M1.3), “combinatorially enhanced outcome”; in assay [1] (temsirolimus + P4-G1-M1.3), “combinatorially enhanced outcome”; in assay [3], “combinatorially enhanced outcome”; in assay [4] (ER or PR positive breast cancer, NVP-BEZ235 + P4-G1-M1.3), “combinatorially enhanced outcome”; in assay [4] (ER or PR positive breast cancer, antihormonal therapy (tamoxifen, exemestane, letrozole or fulvestrant) + P4-G1-M1.3) it was “combinatorially enhanced outcome”. The treatment outcome in assay [4] (ER positive, PR positive or triple negative breast cancers (or tumor types of Examples 5-10), mTOR or pan-mTOR inhibitor + P4-G1-M1.3) is given as “combinatorially enhanced outcome”; in assay [4] (metastatic breast cancer, paclitaxel or eribulin + P4-G1-M1.3) it was “combinatorially enhanced outcome”; in assay [4] (postmenopausal women, ER-positive breast cancer, PI3K inhibitor (XL147 or BKM120) + P4-G1-M1.3), “combinatorially enhanced outcome”; in assay [4] (women with locally advanced or metastatic breast cancer, docetaxel + P4-G1-M1.3), “combinatorially enhanced outcome”. In assay [2] (Caki-1 xenograft in Nu/Nu mice, 3mpk everolimus+500 μg P4-G1-M1.3, FIG. 1), the “response to everolimus (tumor growth)” value is “potentiates responses to everolimus”. Besides, the “tumor growth (mean tumor volume)” value in assay [2] (Caki-1 xenograft in Nu/Nu mice, P4-G1-M1.3 at 500, 300, or 100 μg, FIG. 1) is recorded as “suppresses tumor growth”. Besides, the tumor growth entry in assay [2] (Caki-1 xenograft, Example 12) was “suppresses tumor growth”. In assay [2] (Caki-1 xenograft, combination with sirolimus), the response to sirolimus result is given as “potentiates responses to sirolimus”.
